Assay [1] has as its target T1, ZIKV quad-fusion-loop variant of the E ectodomain (ZIKV E-FL) (Zika virus, strain H/PF/2013).
T1 construct: Variant of m8
In words: direct ELISA, antigen coated at 2 µg/ml, mAb at 0.5 µg/ml, OD 450 nm.

Assay [2] has as its target T2, recombinant ZIKV DIII (domain III of the E protein, strain H/PF/2013, residues 299 to 407) (Zika virus, strain H/PF/2013, UniProt A0A024B7W1 591-694). The experiment in a line: BLI, equilibrium.
Assay [3] addresses T3, recombinant WNV E ectodomain (strain New York 1999) (West Nile virus, strain New York 1999, UniProt Q9Q6P4 291-694).
T3 construct: range 291-694
T3 sequence: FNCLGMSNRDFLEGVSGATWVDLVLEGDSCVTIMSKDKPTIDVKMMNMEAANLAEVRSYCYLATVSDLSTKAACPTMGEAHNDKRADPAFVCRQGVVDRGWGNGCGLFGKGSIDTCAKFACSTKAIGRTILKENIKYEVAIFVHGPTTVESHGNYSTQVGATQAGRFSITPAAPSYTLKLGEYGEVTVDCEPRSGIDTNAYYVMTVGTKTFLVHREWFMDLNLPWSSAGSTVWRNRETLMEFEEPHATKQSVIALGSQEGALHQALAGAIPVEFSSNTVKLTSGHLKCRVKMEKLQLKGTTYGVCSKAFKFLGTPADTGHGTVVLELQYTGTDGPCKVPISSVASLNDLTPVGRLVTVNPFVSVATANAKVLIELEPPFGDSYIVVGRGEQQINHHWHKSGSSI
The experiment in a line: ELISA on plate-adsorbed WNV E. Background: In an ELISA, binding on a coated surface is turned into a signal by an enzyme label.

Assay [4] deals with ZIKV strain H/PF/2013 (French Polynesia, 2013), infectious virus (Zika virus, strain H/PF/2013). In words: cell-based or functional assay.
For assay [5], the target named is T2, recombinant ZIKV DIII (domain III of …). In words: BLI; half-life calculated from the dissociation constant, kd kinetic.
The target is the same in assay [6].
The target in assay [7] is T4, DENV4 E.
T4 construct: also called DV4-E; recombinant DENV-4 E ectodomain
In words: direct ELISA, antigen coated at 2 µg/ml, OD 450 nm.

Assay [8] concerns the target T2, recombinant ZIKV DIII (domain III of …). In words: BLI, biotinylated mAb on streptavidin sensor, DIII in solution; KD (equilibrium). (BLI is a label-free optical method that tracks binding on a fibre tip over time.)
Assay [9] has as its target T5, recombinant soluble ZIKV E protein ectodomain (strain H/PF/2013) (Zika virus, strain H/PF/2013).
T5 construct: also called ZIKV E ectodomain; monomeric form of the ectodomain of E
In words: direct ELISA, antigen coated at 2 µg/ml, mAb at 0.5 µg/ml, OD 450 nm.

Assay [10] concerns the target T6, ZIKV.
T6 construct: also called ZIKV H/PF/2013-infected Vero cells
In words: flow cytometry, infected cells fixed and permeabilized, mAb at 10 µg/ml, Alexa Fluor 647 anti-mouse IgG. (In flow cytometry, cells or beads pass a laser one at a time.)

Assay [11] concerns the target T2, recombinant ZIKV DIII (domain III of …). This is another data set of the same source.
Assay [12] deals with ZIKV subviral particles (SVPs, prM-E of strain H/PF/2013) (Zika virus, strain H/PF/2013).
Assay [13] concerns the target T2, recombinant ZIKV DIII (domain III of …). The source holds these as a separate data set.

Substitutions are numbered along the chain they refer to. “And” between values parts separate entries of the source, which are not always exact repeats. Equal values may be shown once. Read-outs that look alike come from different tables or passages of the source. A value given as a limit tells only on which side of the number the result lay.

For orientation: Kd means a measure of binding affinity in units of concentration. As usually defined, the koff is the rate constant with which the complex falls apart. The term kon denotes the second-order rate constant of association. A word on the EC50 (read off the curve): it is the concentration that produces a half-maximal response. A low value points to a more potent agent.

B1: ZV-2 monoclonal antibody (antibody, V domains shown)
VH: QVQLQESGAELMKPGASVKLSCKTSGYTFIGYWIEWLKQRPGHGLEWVGEIFPGSGRTKYNEKFKGRATFTADTSSNMAYMQLSSLTTEDSAIYYCARYYYGSYYALDYWGQGTSVTVSS
VL: DIVMTQSPSSLSVSAGEKVTLSCKSSQSLLHSGNQKNYLAWYQQKPGQAPKLLIYGASTRESGVPDRFTGSGSGTDFTLTISSVQAEDLAVYYCQNDHSYPLTFGAGTKLELK
notes: also called ZIKV-2
As to B1, the binding result in [1] is on record as “binds”; in [3], “no binding (tested: 0.5 µg/ml)”; in [7], “no binding (tested: 0.5 µg/ml)”. Besides, the Kd in assay [2] was > 250 nM; in assay [6], 121 nM and 295 nM; in assay [8], 266 nM. In addition, the “% Neutralization (undiluted sups), focus reduction on Vero cells” value in [4] was < 30%. The “t1/2” value in assay [5] was 0.3 min.

B2: ZV-48 monoclonal antibody (antibody, V domains shown)
VH: QVQLQQPGAELLKPGASVKLSCKASGYSFSNYWMHWVKQRPGQGPEWIGMIHPNSGNTKYNEKFKNKATLTVDKSSSMVYMQLSSLTSEDSAVFYCARLGNDMDYWGQGTSVTVSS
VL: DIVMSQSPSSLAVSVGEKITMSCKSSQSLLYSNNEKNYLAWYQQKPGQSPKLLIYWASARDSGVPDRFTGSGSGTDFTLTISSVKAEDLAVFYCQQYYSYPYTFGGGTKLEIK
notes: also called ZIKV-48
As for B2, the binding result in [9] is “binds”; in assay [1], “binds”; in assay [10] it was “binds”; in assay [3], “no binding (tested: 0.5 µg/ml)”; in assay [7] it was “no binding (tested: 0.5 µg/ml)”. In addition, the equilibrium dissociation constant (Kd) in [2] is ~35 nM; in assay [6], 26.8 nM and 35.2 nM; in assay [8] it was 35 nM. For the same molecule, the “% Neutralization (undiluted sups), focus reduction on Vero cells” value in [4] was determined as 100%. For the same molecule, in assay [5], the “t1/2” value is 3.2 min. Besides, in [6], the koff came to 0.0038 s⁻¹. Also, the kon in [6] came out at 148000 M⁻¹ s⁻¹.

B3: ZV-54 monoclonal antibody (antibody, V domains shown)
VH: QVQLQQSGVGLARPGTSVKLSCKASGYSFTTYGISWVTQRPGQGLEWIGVIYPRSNNTYYNERFRGKATLTADKSSSSAYLELRGLTAEDSAVYFCARENYGSVYWGQGTTLTVSS
VL: DIVMTQSQKFMSTSVGDRVTITCKASQSVGTAVAWYHQKPGQSPKLLIYSASNRYTGVPDRFTGSGSGTDFTLTITYMQSEDLADYFCQQFSNYPFTFGGGTKLEIK
notes: also called ZIKV-54
With B3, the binding result in assay [9] was “binds”; in assay [1], “binds”; in [10], “binds”; in assay [3], “no binding (tested: 0.5 µg/ml)”; in [7] it was “no binding (tested: 0.5 µg/ml)”. Moreover, the Kd was < 10 nM in assay [2] and 7.9 nM in assay [8]. Besides, the “% Neutralization (undiluted sups), focus reduction on Vero cells” value in [4] came out at 100%. In addition, the “t1/2” value in assay [5] is 33 min. The koff in assay [11] is 0.000312 s⁻¹. Besides, the association rate constant (kon) in assay [11] worked out at 149000 M⁻¹ s⁻¹.

B4: ZV-67 monoclonal antibody (antibody, V domains shown)
VH: B3 VH with V2A, V9T, T16A, S28T, T31S, P41A, N56G, R63K, L81M
VL: B3 VL with T20S, S28N, H37Q, T76S, Y77N, N93S, F96Y
notes: also called ZIKV-67
As for B4, the binding result in [9] is reported as “binds”; in assay [1], “binds”; in assay [10], “binds”; in assay [3] it was “no binding (tested: 0.5 µg/ml)”; in [7] it was “no binding (tested: 0.5 µg/ml)”. For the same molecule, the dissociation constant Kd in [2] was < 10 nM; in [8], 8.8 nM; in assay [13], 6.77 nM and 9.89 nM. In addition, the “% Neutralization (undiluted sups), focus reduction on Vero cells” value in assay [4] came to 100%. Moreover, the “t1/2” value in [5] was 13.8 min. Further, in assay [12], the “EC50 (read off the curve)” value was ~5 ng/mL.

The values above are taken from patent US20210332111A1 (WASHINGTON UNIVERSITY, published 2021).
